The target in the assay is actin filament (skeletal muscle alpha-actin) (Oryctolagus cuniculus, UniProt P68135). The experiment in a line: co-sedimentation.

A word on the Kd: it is the free concentration of one partner at which half of the binding sites on the other are occupied at equilibrium, for simple one-to-one binding. A higher Kd goes with lower affinity.

B1: GFP-Rng2CHD CHD (protein)
chain: MDVNVGLSRLQSQAGAPVGTKGSNTRLAAKQRETLQAYDYLCRVDEAKKWIEECLGTDLGPTSTFEQSLRNGVVLALLVQKFQPDKLIKIFYSNELQFRHSDNINKFLDFIHGIGLPEIFHFELTDIYEGKNLPKVIYCIHALSYFLSMQDLAPPLIKSDENLSFTDEDVSIIVRRLRQSNVILPNFKA
modifications: GFP fused to Rng2CHD N-terminus, phalloidin-stabilized actin filaments
In the case of B1, the affinity, expressed as Kd, was 3400 nM.

B2: Rng2CHD CHD (protein)
chain: B1 chain
modifications: phalloidin-stabilized actin filaments
B2 returned a Kd of 920 nM.

Source of the values: article PMC9610768 (2022).
